IC50 data for two molecules are collected here from patent publication US20050079574A1.

For this assay, the target named is IGF1 (Insulin-like Growth Factor 1) (UniProt P05019). The experiment in a line: IC50 (uM) column of the drawn table; phage clone of the F(ab')2 L3/H3 library on the 4D5 template, IC50 analysed as in Sidhu et al. (P-0517); source oligo (DVK)7.

B1: SEQ ID NO 69 (antibody, part only; not given: template light chain, V domains shown, part only)
VH: EVQLVESGGGLVQPGGSLRLSCAASGFNIKDTYIHWVRQAPGKGLEWVARIYPTNGYTRYADSVKGRFTISADTSKNTAYLQMNSLRAEDTAVYYCSRSRGWWTAAMDVWGQGTLVTVSS
B1 displayed a half-maximal inhibitory concentration (IC50) of 0.3 µM.

B2: SEQ ID NO 70 (antibody, part only; not given: template light chain, V domains shown, part only)
VH: EVQLVESGGGLVQPGGSLRLSCAASGFNIKDTYIHWVRQAPGKGLEWVARIYPTNGYTRYADSVKGRFTISADTSKNTAYLQMNSLRAEDTAVYYCSRASRDWYGAMDVWGQGTLVTVSS
As to B2, the IC50 was 15 µM.
